Measurements: patent EP2594588A1

Target: ADM (agonist of the ADM-Bioassay, human or mouse not told)
Experiment: cell-based or functional assay

Substance: Non specific mouse IgG (antibody)
- Maximal inhibition of ADM bioactivity (ADM-Bioassay) (%): 0%
